Laboratory results: US6867193B1, “Amino acid-containing albumin preparation” (Nipro Corporation, priority 1999, dated 2005)

Tested on: hepatic encephalopathy model animal
Test: hepatic encephalopathy model rat (partial hepatectomy + ammonium acetate): coma period and plasma ammonia (Test Examples 1-3)
Format: in vivo
Conditions: for coma period / concentration of ammonia in the blood: mean ± standard error
Experimental: A test drug was prepared by dissolving rat serum albumin (RSA, manufactured by Sigma Corp.) in an amino acid solution (components are disclosed in Table 3) to form a 0.1 w/v % or 1.0 w/v % solution, adding 1.0 N hydrochloric acid thereto to adjust the pH to 6.6 to 7.4 according to Preparation Example 3, filling the solution into a 500 ml infusion bottle and heating at 60° C. for 10 hours after sealing the bottle with a rubber plug. In comparison, physiological saline or the amino acid solution (pH 6.6 to 7.4), respectively, was used in the same way.
Rat partial hepatectomy was carried out by performing a laparotomy of a male SD rat (body weight of 200 to 230 g) under etherization, removing a lateral left lobe, a medial left lobe and a medial right lobe (67%) and closing the abdomen (Archs. Pathol., 1985; 12: 186-202).
A hepatic encephalopathy model animal was created by administering 2 M ammonium acetate solution at a rate of 3 ml/kg into the rat abdomen after 48 hours from the partial hepatectomy (“Kiso to Rinsho”, 1987; 21: 2509-2527).
The test drug was injected from the rat tail vein (10 ml/kg) 2 minutes before administering the ammonium solution. Subsequently, the coma period (minutes) was measured, blood was collected from the rat tail vein 30 minutes after administration of the ammonium solution, and the ammonia concentration in the blood plasma was determined by using an ammonia measuring reagent kit (brand name: Determiner NH3, manufactured by Kyowa Medics Corporation).
A test drug was prepared by dissolving human serum albumin (HSA, manufactured by Sigma Corp.) in the amino acid solution (components are disclosed in Table 3) in the same manner as in Preparation Example 3 to form a desired concentration of the solution (0.001, 0.01, 0.1 or 1.0 w/v %). 6 to 14 male SD rats (body weight 200 to 230 g) as test animals were used per one group, and creation of a hepatic encephalopathy model animal and a test method were carried out in the same manner as Test Example 1. The test drug was injected in an amount of 10 ml/kg from the tail vein.
A test drug was prepared by dissolving bovine serum albumin (BSA, manufactured by Sigma Corp.) in the amino acid solution (components bare disclosed in Table 3) in the same manner as in Preparation Example 3 to form a desired concentration of the solution (0.1 w/v % or 1.0 w/v %). Creation of a hepatic encephalopathy model animal and a test method were carried out in the same manner as Test Example 1.

## 1.0% BSA: bovine serum albumin (BSA, manufactured by Sigma Corp.), 1.0%, given alone
Test Example 3 (BSA)
  coma period: 23 ± 3 min
  concentration of ammonia in the blood: 119 ± 10 µmol/dL

B1: 1.0% RSA: rat serum albumin (RSA, manufactured by Sigma Corp.), 1.0% final concentration, given alone (protein, UniProt P02770 25-608, looked up)
Albumin: EAHKSEIAHRFKDLGEQHFKGLVLIAFSQYLQKCPYEEHIKLVQEVTDFAKTCVADENAENCDKSIHTLFGDKLCAIPKLRDNYGELADCCAKQEPERNECFLQHKDDNPNLPPFQRPEAEAMCTSFQENPTSFLGHYLHEVARRHPYFYAPELLYYAEKYNEVLTQCCTESDKAACLTPKLDAVKEKALVAAVRQRMKCSSMQRFGERAFKAWAVARMSQRFPNAEFAEITKLATDVTKINKECCHGDLLECADDRAELAKYMCENQATISSKLQACCDKPVLQKSQCLAEIEHDNIPADLPSIAADFVEDKEVCKNYAEAKDVFLGTFLYEYSRRHPDYSVSLLLRLAKKYEATLEKCCAEGDPPACYGTVLAEFQPLVEEPKNLVKTNCELYEKLGEYGFQNAVLVRYTQKAPQVSTPTLVEAARNLGRVGTKCCTLPEAQRLPCVEDYLSAILNRLCVLHEKTPVSEKVTKCCSGSLVERRPCFSALTVDETYVPKEFKAETFTFHSDICTLPDKEKQIKKQTALAELVKHKPKATEDQLKTVMGDFAQFVDKCCKAADKDNCFATEGPNLVARSKEALA
Test Example 1, text on Table 4
  effect on the hepatic encephalopathy: no effect
Test Example 1, blood plasma 30 min after ammonium solution, test drug 10 ml/kg tail vein
  concentration of ammonia in the blood: 129 ± 13 µmol/dL
Test Example 1, male SD rat, test drug 10 ml/kg tail vein 2 min before ammonium acetate
  coma period: 31 ± 5 min
